# ± gives the standard deviation of the averaged measurements or the uncertainty stated by the source.
# How the values were obtained:
# [1] = duplex formation enthalpy ΔH (Van't Hoff fit of HRM Tm); higher = less exothermic duplex formation; conditions: temperature for dG: 50 °C, NaCl: 500 mM (unadjusted)
# Procedure: (§1)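 Duplex of the listed DNA strand with its complement, in 1x NNE buffer (500 mM NaCl, pH 7.0) with 1x EvaGreen. ΔH and ΔS come from a Van't Hoff linear fit of 1/Tm against ln(CT/4) over 1-20 uM, using HRM Tm values.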
# [2] = duplex melting temperature (HRM, EvaGreen); higher = more stable duplex
# Procedure: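 Listed DNA strand annealed 1:1 with its complementary strand (95 °C 5 min, 0.1 °C/s to 20 °C). Melted in 1x NNE buffer (500 mM NaCl, 10 mM Na2HPO4, 1 mM EDTA, pH 7.0) with 1x EvaGreen on a LightCycler96 (37 to 97 °C, 0.1 °C/s). Tm is the peak of -dF/dT at the stated total duplex concentration; 4 replicates are averaged. PS oligos are non-stereospecific (Rp/Sp mixtures).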
# [3] = duplex formation free energy ΔG50 (Van't Hoff fit of HRM Tm); higher = less stable duplex; conditions: temperature for dG: 50 °C, NaCl: 500 mM (unadjusted)
# Procedure: as §1
# [4] = duplex formation entropy ΔS (Van't Hoff fit of HRM Tm); higher = smaller entropy loss on duplex formation; conditions: temperature for dG: 50 °C, NaCl: 500 mM (unadjusted)
# Procedure: as §1
# [5] = backbone: PO-PO (both strands phosphodiester DNA)
# [6] = backbone: PS-PO (listed strand fully phosphorothioate, complement phosphodiester)
# [7] = backbone: PS-PS (both strands fully phosphorothioate)
# [8] = duplex concentration 1 µM, backbone: PO-PO (both strands phosphodiester DNA)
# [9] = duplex concentration 1 µM, backbone: PS-PO (listed strand fully phosphorothioate, complement phosphodiester)
# [10] = duplex concentration 1 µM, backbone: PS-PS (both strands fully phosphorothioate)
# [11] = duplex concentration 2.5 µM, backbone: PO-PO (both strands phosphodiester DNA)
# [12] = duplex concentration 2.5 µM, backbone: PS-PO (listed strand fully phosphorothioate, complement phosphodiester)
# [13] = duplex concentration 2.5 µM, backbone: PS-PS (both strands fully phosphorothioate)
# [14] = duplex concentration 5 µM, backbone: PO-PO (both strands phosphodiester DNA)
# [15] = duplex concentration 5 µM, backbone: PS-PO (listed strand fully phosphorothioate, complement phosphodiester)
# [16] = duplex concentration 5 µM, backbone: PS-PS (both strands fully phosphorothioate)
# [17] = duplex concentration 7.5 µM, backbone: PO-PO (both strands phosphodiester DNA)
# [18] = duplex concentration 7.5 µM, backbone: PS-PO (listed strand fully phosphorothioate, complement phosphodiester)
# [19] = duplex concentration 7.5 µM, backbone: PS-PS (both strands fully phosphorothioate)
# [20] = duplex concentration 10 µM, backbone: PO-PO (both strands phosphodiester DNA)
# [21] = duplex concentration 10 µM, backbone: PS-PO (listed strand fully phosphorothioate, complement phosphodiester)
# [22] = duplex concentration 10 µM, backbone: PS-PS (both strands fully phosphorothioate)
# [23] = duplex concentration 15 µM, backbone: PO-PO (both strands phosphodiester DNA)
# [24] = duplex concentration 15 µM, backbone: PS-PO (listed strand fully phosphorothioate, complement phosphodiester)
# [25] = duplex concentration 15 µM, backbone: PS-PS (both strands fully phosphorothioate)
# [26] = duplex concentration 20 µM, backbone: PO-PO (both strands phosphodiester DNA)
# [27] = duplex concentration 20 µM, backbone: PS-PO (listed strand fully phosphorothioate, complement phosphodiester)
# [28] = duplex concentration 20 µM, backbone: PS-PS (both strands fully phosphorothioate)
Sequence,"duplex formation enthalpy ΔH [1, 5]","duplex formation enthalpy ΔH [1, 6]","duplex formation enthalpy ΔH [1, 7]","duplex melting temperature [2, 8]","duplex melting temperature [2, 9]","duplex melting temperature [2, 10]","duplex melting temperature [2, 11]","duplex melting temperature [2, 12]","duplex melting temperature [2, 13]","duplex melting temperature [2, 14]","duplex melting temperature [2, 15]","duplex melting temperature [2, 16]","duplex melting temperature [2, 17]","duplex melting temperature [2, 18]","duplex melting temperature [2, 19]","duplex melting temperature [2, 20]","duplex melting temperature [2, 21]","duplex melting temperature [2, 22]","duplex melting temperature [2, 23]","duplex melting temperature [2, 24]","duplex melting temperature [2, 25]","duplex melting temperature [2, 26]","duplex melting temperature [2, 27]","duplex melting temperature [2, 28]","duplex formation free energy ΔG50 [3, 5]","duplex formation free energy ΔG50 [3, 6]","duplex formation free energy ΔG50 [3, 7]","duplex formation entropy ΔS [4, 5]","duplex formation entropy ΔS [4, 6]","duplex formation entropy ΔS [4, 7]"
CTTTTGTGCGGGTAGC,-70.2 ± 3.7 kcal/mol,-67.9 ± 2.4 kcal/mol,-60 ± 2.5 kcal/mol,63.84 ± 0.57 °C,56.1 °C,48.71 ± 0.41 °C,65.75 ± 0.34 °C,59.24 ± 0.32 °C,52.48 ± 0.25 °C,68.14 ± 0.14 °C,61.53 ± 0.35 °C,55.08 ± 0.22 °C,69.35 ± 0.31 °C,62.94 ± 0.29 °C,56.37 ± 0.13 °C,70.49 ± 0.15 °C,63.93 ± 0.083 °C,57.22 ± 0.12 °C,71.94 ± 0.13 °C,65.13 ± 0.068 °C,58.45 ± 0.21 °C,73.2 ± 0.36 °C,65.98 ± 0.35 °C,59.6 ± 0.74 °C,-12.5 ± 0.21 kcal/mol,-11.07 ± 0.095 kcal/mol,-9.593 ± 0.049 kcal/mol,-179 ± 11 cal/mol/K,-176 ± 7.2 cal/mol/K,-156 ± 7.6 cal/mol/K
GGACGGCGTT,,,,,,39.971 ± 0.0066 °C,,,43 ± 0.68 °C,,,47.59 ± 0.14 °C,,,50.3 ± 1.2 °C,63.65 ± 0.51 °C,,50.8 ± 1.5 °C,64.94 ± 0.51 °C,61.1 ± 0.49 °C,53.7 ± 0.47 °C,65.94 ± 0.2 °C,62.78 ± 0.33 °C,53.7 °C,,,,,,
CGGCGCGCTG,,,,,,44.8 ± 1.1 °C,66.4 °C,,47 ± 1.1 °C,67.7 ± 0.9 °C,64.9 ± 1.3 °C,50 ± 1.2 °C,69.25 ± 0.52 °C,66.2 ± 0.84 °C,,70.35 ± 0.13 °C,67.43 ± 0.12 °C,,70.84 ± 0.39 °C,68.41 ± 0.079 °C,,72.07 ± 0.61 °C,69.27 ± 0.21 °C,,,,,,,
CGTGTGGATAATTAGCT,-83.9 ± 2 kcal/mol,-81 ± 2.4 kcal/mol,-80.3 ± 3 kcal/mol,61.98 ± 0.083 °C,,45.73 ± 0.44 °C,64.1 ± 0.3 °C,56.74 ± 0.17 °C,48.55 ± 0.15 °C,65.87 ± 0.1 °C,58.92 ± 0.14 °C,50.38 ± 0.16 °C,66.87 ± 0.1 °C,59.81 ± 0.096 °C,51.21 ± 0.21 °C,67.8 ± 0.11 °C,60.627 ± 0.006 °C,51.88 ± 0.24 °C,68.959 ± 0.05 °C,61.686 ± 0.014 °C,52.84 ± 0.21 °C,69.9 ± 0.083 °C,62.48 ± 0.14 °C,53.67 ± 0.26 °C,-12.67 ± 0.099 kcal/mol,-10.86 ± 0.074 kcal/mol,-8.757 ± 0.024 kcal/mol,-220 ± 5.9 cal/mol/K,-217 ± 7.2 cal/mol/K,-221 ± 9.2 cal/mol/K
AGACATCCCATACGAGCATCCA,-112 ± 7.7 kcal/mol,-124 ± 4.9 kcal/mol,-90.8 ± 2 kcal/mol,74.67 ± 0.5 °C,67.6 ± 0.69 °C,58.4 ± 0.91 °C,75.64 ± 0.58 °C,69.1 ± 0.53 °C,60.9 ± 0.71 °C,77.03 ± 0.46 °C,70.2 ± 0.62 °C,62.6 ± 0.4 °C,78.03 ± 0.27 °C,71.19 ± 0.51 °C,63.56 ± 0.19 °C,79.049 ± 0.057 °C,71.87 ± 0.23 °C,64.391 ± 0.055 °C,79.985 ± 0.077 °C,72.68 ± 0.15 °C,65.3 ± 0.086 °C,80.728 ± 0.069 °C,73.314 ± 0.051 °C,65.89 ± 0.11 °C,-17.5 ± 0.61 kcal/mol,-16.1 ± 0.3 kcal/mol,-12.13 ± 0.08 kcal/mol,-292 ± 22 cal/mol/K,-333 ± 14 cal/mol/K,-243 ± 6 cal/mol/K
CACAGCGACATGTATGG,-84.1 ± 2.5 kcal/mol,-83.1 ± 1.4 kcal/mol,-80 ± 3.5 kcal/mol,66.351 ± 0.017 °C,59.17 ± 0.49 °C,51.1 ± 0.65 °C,68.17 ± 0.38 °C,61.71 ± 0.23 °C,54.15 ± 0.059 °C,70.03 ± 0.34 °C,63.56 ± 0.32 °C,56.02 ± 0.1 °C,71.11 ± 0.17 °C,64.61 ± 0.28 °C,56.91 ± 0.12 °C,72.07 ± 0.21 °C,65.347 ± 0.065 °C,57.68 ± 0.091 °C,73.27 ± 0.14 °C,66.45 ± 0.11 °C,58.539 ± 0.051 °C,74.18 ± 0.2 °C,67.43 ± 0.1 °C,59.3 ± 0.12 °C,-13.7 ± 0.16 kcal/mol,-12.06 ± 0.059 kcal/mol,-10.12 ± 0.071 kcal/mol,-218 ± 7.4 cal/mol/K,-220 ± 4.1 cal/mol/K,-216 ± 10 cal/mol/K
GCTGTGAAACAATGTAG,-82.5 ± 3.5 kcal/mol,-78.8 ± 1.9 kcal/mol,-82.8 ± 2.5 kcal/mol,60.4 ± 1.3 °C,52.85 ± 0.06 °C,43.66 ± 0.19 °C,62.76 ± 0.31 °C,55.41 ± 0.29 °C,45.72 ± 0.19 °C,64.54 ± 0.42 °C,57.39 ± 0.24 °C,47.54 ± 0.13 °C,65.61 ± 0.42 °C,58.44 ± 0.21 °C,48.34 ± 0.13 °C,66.58 ± 0.4 °C,59.19 ± 0.24 °C,49.09 ± 0.059 °C,67.8 ± 0.33 °C,60.21 ± 0.11 °C,50.25 ± 0.24 °C,68.65 ± 0.32 °C,61.12 ± 0.092 °C,51.09 ± 0.3 °C,-12.3 ± 0.16 kcal/mol,-10.46 ± 0.049 kcal/mol,-8.078 ± 0.024 kcal/mol,-217 ± 10 cal/mol/K,-211 ± 5.7 cal/mol/K,-231 ± 7.8 cal/mol/K
GTGAAACAATGCTGTAG,-76.6 ± 3 kcal/mol,-75.5 ± 2 kcal/mol,-72.1 ± 2 kcal/mol,60.8 °C,,43.88 ± 0.29 °C,62.87 ± 0.2 °C,56.26 ± 0.25 °C,46.82 ± 0.2 °C,65.1 ± 0.46 °C,58.51 ± 0.13 °C,48.72 ± 0.15 °C,66.14 ± 0.17 °C,59.58 ± 0.12 °C,49.72 ± 0.1 °C,67.07 ± 0.17 °C,60.43 ± 0.12 °C,50.48 ± 0.19 °C,68.31 ± 0.14 °C,61.59 ± 0.25 °C,51.63 ± 0.11 °C,69.27 ± 0.11 °C,62.36 ± 0.4 °C,52.66 ± 0.18 °C,-12.1 ± 0.14 kcal/mol,-10.63 ± 0.061 kcal/mol,-8.41 ± 0.018 kcal/mol,-199 ± 8.8 cal/mol/K,-201 ± 6.2 cal/mol/K,-197 ± 6.4 cal/mol/K
TTGTAGTTGACGTTTGTGATTTAGTGAATT,-186 ± 8.2 kcal/mol,-151 ± 4.2 kcal/mol,-121 ± 2.5 kcal/mol,75.58 ± 0.12 °C,66.16 ± 0.47 °C,57.2 ± 0.68 °C,76.626 ± 0.046 °C,67.48 ± 0.5 °C,59 ± 0.58 °C,77.623 ± 0.046 °C,68.57 ± 0.46 °C,60.27 ± 0.37 °C,78.24 ± 0.12 °C,69.28 ± 0.39 °C,60.98 ± 0.26 °C,78.646 ± 0.027 °C,69.64 ± 0.24 °C,61.54 ± 0.13 °C,78.98 ± 0.12 °C,70.23 ± 0.23 °C,62.29 ± 0.073 °C,79.7 °C,70.83 ± 0.099 °C,62.84 ± 0.14 °C,-23.4 ± 0.65 kcal/mol,-16.9 ± 0.24 kcal/mol,-12.45 ± 0.081 kcal/mol,-503 ± 23 cal/mol/K,-414 ± 12 cal/mol/K,-335 ± 7.4 cal/mol/K
ACGGGTCGTTCCGTG,-68.9 ± 5.2 kcal/mol,-67 ± 0.95 kcal/mol,-70.7 ± 4.1 kcal/mol,,,,,60.97 ± 0.26 °C,56.07 ± 0.25 °C,71.45 ± 0.49 °C,63.292 ± 0.043 °C,58.82 ± 0.085 °C,73.32 ± 0.23 °C,64.64 ± 0.1 °C,60 ± 0.17 °C,74.34 ± 0.26 °C,65.62 ± 0.087 °C,60.71 ± 0.21 °C,75.77 ± 0.15 °C,67.006 ± 0.054 °C,61.81 ± 0.19 °C,76.55 ± 0.13 °C,68.03 ± 0.2 °C,62.74 ± 0.27 °C,-13.1 ± 0.37 kcal/mol,-11.37 ± 0.043 kcal/mol,-10.5 ± 0.13 kcal/mol,-173 ± 15 cal/mol/K,-172 ± 2.8 cal/mol/K,-186 ± 12 cal/mol/K
